Here are results for 1 molecule from US20150094211, “POLYMERASE COMPOSITIONS, METHODS OF MAKING AND USING SAME” (LIFE TECHNOLOGIES CORPORATION, published 2015).

Common to all, as to settings: label: fluorescein-dT at N (position 34); hairpin with 5' overhang
Data set [1] concerns the target T1, Bst DNA polymerase large fragment (Bst 1.0, reference).
T1 chain: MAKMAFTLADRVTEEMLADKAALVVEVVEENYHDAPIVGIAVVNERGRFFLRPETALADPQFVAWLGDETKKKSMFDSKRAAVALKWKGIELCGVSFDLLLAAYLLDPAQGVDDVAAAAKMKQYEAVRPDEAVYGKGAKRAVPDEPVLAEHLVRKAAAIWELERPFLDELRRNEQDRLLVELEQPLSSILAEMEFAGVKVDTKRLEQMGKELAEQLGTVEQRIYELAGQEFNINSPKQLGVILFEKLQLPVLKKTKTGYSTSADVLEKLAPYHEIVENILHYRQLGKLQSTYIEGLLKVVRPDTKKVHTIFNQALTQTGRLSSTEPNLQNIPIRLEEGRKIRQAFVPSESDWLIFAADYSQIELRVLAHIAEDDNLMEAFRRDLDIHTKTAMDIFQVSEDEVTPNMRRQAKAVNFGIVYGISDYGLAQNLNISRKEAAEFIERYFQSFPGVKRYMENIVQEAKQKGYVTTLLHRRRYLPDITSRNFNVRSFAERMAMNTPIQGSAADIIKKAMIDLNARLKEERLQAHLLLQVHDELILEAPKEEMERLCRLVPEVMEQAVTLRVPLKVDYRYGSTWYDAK
Nature of the data set: reference; dissociates 4.7-fold faster than D480R; rate constant only in figure.

For data set [2], the target named is Taq DNA polymerase E745Q (UniProt P19821 SEQ:1-832, E745Q). Nature of the data set: fluorescence dissociation with excess hairpin oligo 173 competitor (SEQ 22); mutant dissociates slower. As for the experimental part: (§1) To perform the assay, reactions (75 μl) containing 30 mM Tris (pH 7.5), 20 mM NaCl, 50 nM oligo 221, and ˜10-200 nM partially polymerase samples (prepared according to Example 1) were assembled in 96-well plates. Baseline readings were then taken on the spectrophotometer using 490 nm excitation and 525 nm emission wavelengths. The 173 competitor oligo (2 μM final concentration) was then rapidly added to each well and plates were rapidly returned to the spectrophotometer for readings every 30 seconds for 5 minutes. The dissociation rate was calculated by fitting the data to a one-phase exponential decay equation using PrismGraph® according to the following formula: […]
Taq DNA polymerase E745Q, sequence (P19821 whole entry E745Q): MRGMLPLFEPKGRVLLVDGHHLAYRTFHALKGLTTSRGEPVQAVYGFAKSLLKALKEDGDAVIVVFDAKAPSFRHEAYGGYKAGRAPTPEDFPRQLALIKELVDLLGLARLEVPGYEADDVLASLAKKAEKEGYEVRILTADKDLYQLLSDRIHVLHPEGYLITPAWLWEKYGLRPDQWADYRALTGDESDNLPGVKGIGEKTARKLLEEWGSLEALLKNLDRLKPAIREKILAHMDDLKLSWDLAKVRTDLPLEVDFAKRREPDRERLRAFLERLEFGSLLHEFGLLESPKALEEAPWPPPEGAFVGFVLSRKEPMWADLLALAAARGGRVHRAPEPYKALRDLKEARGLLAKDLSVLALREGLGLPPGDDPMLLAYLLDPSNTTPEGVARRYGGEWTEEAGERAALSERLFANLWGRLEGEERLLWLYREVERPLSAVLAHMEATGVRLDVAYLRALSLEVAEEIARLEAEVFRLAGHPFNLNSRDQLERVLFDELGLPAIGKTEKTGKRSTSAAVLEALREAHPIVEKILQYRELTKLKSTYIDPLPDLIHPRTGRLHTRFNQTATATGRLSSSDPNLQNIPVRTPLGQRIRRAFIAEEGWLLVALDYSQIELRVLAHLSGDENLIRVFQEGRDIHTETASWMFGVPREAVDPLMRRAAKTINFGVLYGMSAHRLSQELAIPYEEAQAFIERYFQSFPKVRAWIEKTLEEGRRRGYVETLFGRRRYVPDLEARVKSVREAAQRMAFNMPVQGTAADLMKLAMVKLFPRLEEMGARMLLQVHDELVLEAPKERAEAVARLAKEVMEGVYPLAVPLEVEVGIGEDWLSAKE
(§2) Various exemplary mutations were introduced via site-directed mutagenesis into an exemplary reference polymerase (wild-type Taq DNA polymerase SEQ ID NO: 15) to generate a series of modified Taq DNA polymerases. In this example, reference polymerase, SEQ ID NO: 15 was modified to contain a single amino acid mutation selected from D732R, E745Q or E471K. Each modified polymerase was sequence verified, and expressed essentially according to Example 1. The modified polymerases were then assayed to measure dissociation rate constant essentially according to Example 2.

Data set [3] addresses Taq DNA polymerase E471K (UniProt P19821 SEQ:1-832, E471K). The description is as above. As to the method: as §1, §2
The target of data set [4] is Klenow fragment D505R (LR1) (UniProt P00582 SEQ:2-606, D505R). Nature of the data set: fluorescence dissociation with excess hairpin oligo 173 competitor (SEQ 22); 30 mM Tris pH 7.5, 20 mM NaCl; mutant dissociates slower. As for the experimental part: as §1
(§3) Various exemplary mutations were introduced via site-directed mutagenesis into exemplary reference polymerases to generate modified polymerases. In this example, reference polymerase SEQ ID NO: 2 was modified to contain a further amino acid mutation (D480R). Reference polymerase SEQ ID NO: 15 was also modified to contain a further amino acid mutation (D732R). Additionally, reference polymerase SEQ ID NO: 18 was modified to contain amino acid mutation (D505R). The modified polymerases were sequence verified, and expressed essentially according to the procedure of Example 1. The modified polymerases were then assayed to measure dissociation rate constant essentially according to the procedure of Example 2.

In data set [5] the target is T2, Bst DNA polymerase D480R (LR1; D775R in full-length numbering) (D480R).
T2 chain: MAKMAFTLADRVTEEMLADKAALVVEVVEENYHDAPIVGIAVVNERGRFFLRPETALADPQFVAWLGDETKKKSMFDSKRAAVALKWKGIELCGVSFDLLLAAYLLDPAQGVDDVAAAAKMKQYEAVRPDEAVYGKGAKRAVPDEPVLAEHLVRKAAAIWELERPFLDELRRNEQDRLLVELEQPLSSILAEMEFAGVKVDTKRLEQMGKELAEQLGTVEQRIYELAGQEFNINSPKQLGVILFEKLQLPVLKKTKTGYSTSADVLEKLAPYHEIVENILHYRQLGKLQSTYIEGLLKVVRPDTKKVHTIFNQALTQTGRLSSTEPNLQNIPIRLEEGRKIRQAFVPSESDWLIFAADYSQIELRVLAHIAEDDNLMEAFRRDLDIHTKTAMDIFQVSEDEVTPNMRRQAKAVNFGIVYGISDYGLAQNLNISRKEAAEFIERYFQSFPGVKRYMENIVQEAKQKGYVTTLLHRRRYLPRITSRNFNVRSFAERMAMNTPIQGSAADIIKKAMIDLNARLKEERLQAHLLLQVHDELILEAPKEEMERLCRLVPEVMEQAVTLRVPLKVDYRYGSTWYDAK
The data set is described as above. As to the method: as §1, §3

Data set [6] has as its target Taq DNA polymerase D732R (LR1 Taq) (UniProt P19821 SEQ:1-832, D732R). Described as above. As to the method: as §1, §2
For data set [7], the target named is T3, Bst DNA polymerase G425R (G425R).
T3 chain: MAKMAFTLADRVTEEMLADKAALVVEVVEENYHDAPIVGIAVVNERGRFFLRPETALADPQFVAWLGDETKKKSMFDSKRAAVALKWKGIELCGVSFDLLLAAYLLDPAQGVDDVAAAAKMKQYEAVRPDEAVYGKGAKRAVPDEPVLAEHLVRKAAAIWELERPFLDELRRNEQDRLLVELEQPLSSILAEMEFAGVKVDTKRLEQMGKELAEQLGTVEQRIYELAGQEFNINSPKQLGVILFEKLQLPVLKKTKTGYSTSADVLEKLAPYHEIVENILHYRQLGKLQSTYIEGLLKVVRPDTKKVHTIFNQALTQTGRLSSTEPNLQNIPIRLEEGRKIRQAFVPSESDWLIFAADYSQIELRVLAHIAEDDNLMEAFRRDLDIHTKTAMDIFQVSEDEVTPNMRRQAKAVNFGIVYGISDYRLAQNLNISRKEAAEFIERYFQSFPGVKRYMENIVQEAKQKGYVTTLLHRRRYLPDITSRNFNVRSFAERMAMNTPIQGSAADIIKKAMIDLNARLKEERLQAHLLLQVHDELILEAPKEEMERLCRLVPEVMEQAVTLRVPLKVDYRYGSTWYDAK
Nature of the data set: dissociation time constant at varying salt; values only in figure. As to the method: (§4) Dissociation is measured by the decrease in fluorescence that occurs when the Bst polymerase dissociates from the template. Dissociation is initiated by adding a vast excess of unlabeled, competitor DNA (hairpin oligo 173) having the following nucleotide sequence:
as §1

Data set [8] deals with T4, Bst DNA polymerase D144K (D144K).
T4 chain: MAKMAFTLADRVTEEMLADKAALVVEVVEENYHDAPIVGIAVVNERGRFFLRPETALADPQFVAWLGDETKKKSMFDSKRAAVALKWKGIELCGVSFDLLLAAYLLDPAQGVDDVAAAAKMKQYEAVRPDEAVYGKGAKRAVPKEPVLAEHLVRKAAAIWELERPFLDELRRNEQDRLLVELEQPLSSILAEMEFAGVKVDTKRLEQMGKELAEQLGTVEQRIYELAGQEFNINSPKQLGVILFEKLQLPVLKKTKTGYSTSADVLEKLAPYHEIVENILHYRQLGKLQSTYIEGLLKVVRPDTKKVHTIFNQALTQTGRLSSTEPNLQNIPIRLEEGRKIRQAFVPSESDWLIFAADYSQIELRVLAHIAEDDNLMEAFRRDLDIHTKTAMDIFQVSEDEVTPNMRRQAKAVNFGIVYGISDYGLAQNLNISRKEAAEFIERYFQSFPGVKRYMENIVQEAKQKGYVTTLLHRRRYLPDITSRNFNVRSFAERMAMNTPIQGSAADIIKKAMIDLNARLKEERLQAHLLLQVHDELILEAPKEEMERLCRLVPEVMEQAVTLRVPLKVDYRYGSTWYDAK
The description is as above. As to the method: as §4, §1

Data set [9] concerns the target Klenow fragment (wild type) (UniProt P00582 SEQ:2-606). Nature of the data set: reference; dissociates 13-fold faster than D505R; rate constant only in figure.
Data set [10] has as its target T5, Bst DNA polymerase F448K (labelled 488K in the text for FIG. 2) (F448K).
T5 chain: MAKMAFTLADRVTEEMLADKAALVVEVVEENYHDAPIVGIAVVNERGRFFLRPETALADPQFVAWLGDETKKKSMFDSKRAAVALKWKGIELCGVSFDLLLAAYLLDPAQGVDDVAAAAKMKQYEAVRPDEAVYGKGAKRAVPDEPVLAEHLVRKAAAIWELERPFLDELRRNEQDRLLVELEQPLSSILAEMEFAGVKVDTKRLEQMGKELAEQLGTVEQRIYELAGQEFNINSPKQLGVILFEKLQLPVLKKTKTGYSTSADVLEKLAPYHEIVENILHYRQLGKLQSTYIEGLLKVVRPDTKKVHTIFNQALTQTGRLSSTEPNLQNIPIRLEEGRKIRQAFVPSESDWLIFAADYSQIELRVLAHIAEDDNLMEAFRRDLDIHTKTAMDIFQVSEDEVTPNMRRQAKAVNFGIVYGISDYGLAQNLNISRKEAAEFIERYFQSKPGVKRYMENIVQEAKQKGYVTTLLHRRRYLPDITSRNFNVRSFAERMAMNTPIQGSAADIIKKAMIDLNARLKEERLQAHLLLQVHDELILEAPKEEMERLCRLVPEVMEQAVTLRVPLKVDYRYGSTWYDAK
Nature of the data set: dissociation time constant at varying salt; values only in figure; mutation printed as 488K and F448K. As for the experimental part:
as §4, §1

Taq DNA polymerase E471K, sequence (P19821 whole entry E471K, the tested form may be a part): as the sequence (P19821 whole entry E745Q) above, with E471K, Q745E counted along it
Taq DNA polymerase D732R (LR1 Taq), sequence (P19821 whole entry D732R): as the sequence (P19821 whole entry E745Q) above, with D732R, Q745E counted along it

Take TTTTTTTGCAGGTGACAGGTTTTTCCTGTCACCTGC (structured_DNA, [fluorescein-dT at 34]) [oligo 221]: the binding result in [1], in data set [7], in data set [8], in [9] and in [10] was “binds” in each case. The binding signal in data set [2] is 4.7 fold (koff wt/koff mutant); in [3] it was 5 fold (koff wt/koff mutant); in [4] it was 13 fold (koff wt/koff mutant); in data set [5] it was 4.7 fold (koff reference/koff mutant); in data set [6], 14.1 fold (koff wt/koff mutant).
